Laboratory results published in US20240270846A1 (published 2024).
Numbering of substitutions follows the chain as printed.

B1: CE115HA000 H chain altered form N31D (antibody, human IgG1, kappa, L234A L235A, N297A, name in Kabat numbering)
heavy: QVQLVESGGGVVQPGRSLRLSCAASGFTFSDAWMHWVRQAPGKGLEWVAQIKAKSNNYATYYAESVKGRFTISRDDSKNSLYLQMNSLKTEDTAVYYCRYVHYGAYYGVDAWGQGTTVTVSSASTKGPSVFPLAPSSKSTSGGTAALGCLVKDYFPEPVTVSWNSGALTSGVHTFPAVLQSSGLYSLSSVVTVPSSSLGTQTYICNVNHKPSNTKVDKKVEPKSCDKTHTCPPCPAPEAAGGPSVFLFPPKPKDTLMISRTPEVTCVVVDVSHEDPEVKFNWYVDGVEVHNAKTKPREEQYASTYRVVSVLTVLHQDWLNGKEYKCKVSNKALPAPIEKTISKAKGQPREPQVYTLPPSRCELTKNQVSLSCAVKGFYPSDIAVEWESNGQPENNYKTTPPVLDSDGSFFLVSKLTVDKSRWQQGNVFSCSVMHEALHNHYTQKSLSLSPDYKDDDDK
chain: EPKSSDKTHTCPPCPAPELLGGPSVFLFPPKPKDTLMISRTPEVTCVVVDVSHEDPEVKFNWYVDGVEVHNAKTKPREEQYNSTYRVVSVLTVLHQDWLNGKEYKCKVSNKALPAPIEKTISKAKGQPREPQVCTLPPSRDELTKNQVSLWCLVKGFYPSDIAVEWESNGQPENNYKTTPPVLDSDGSFFLYSKLTVDKSRWQQGNVFSCSVMHEALHNRYTQKSLSLSP
light: DIVMTQSPLSLPVTPGEPASISCRSSQSLVHSNRNTYLHWYQQKPGQAPRLLIYKVSNRFSGVPDRFSGSGSGTDFTLKISRVEAEDVGVYYCGQGTQVPYTFGQGTKLEIKRTVAAPSVFIFPPSDEQLKSGTASVVCLLNNFYPREAKVQWKVDNALQSGNSQESVTEQDSKDSTYSLSSTLTLSKADYEKHKVYACEVTHQGLSSPVTKSFNRGEC
notes: one-arm antibody
B2: CE115HA000 H chain altered form N31H (antibody, human IgG1, kappa, L234A L235A, N297A, name in Kabat numbering)
heavy: B1 heavy with D31H
chain: B1 chain
light: B1 light
notes: one-arm antibody
B3: CE115HA000 H chain altered form N53Y (antibody, human IgG1, kappa, L234A L235A, N297A, name in Kabat numbering)
heavy: B1 heavy with D31N, N56Y
chain: B1 chain
light: B1 light
notes: one-arm antibody
B4: CE115HA000 H chain altered form Q50E (antibody, human IgG1, kappa, L234A L235A, N297A, name in Kabat numbering)
heavy: B1 heavy with D31N, Q50E
chain: B1 chain
light: B1 light
notes: one-arm antibody
B5: CE115HA000 H chain altered form N53D (antibody, human IgG1, kappa, L234A L235A, N297A, name in Kabat numbering)
heavy: B1 heavy with D31N, N56D
chain: B1 chain
light: B1 light
notes: one-arm antibody
B6: CE115HA000 H chain altered form N53A (antibody, human IgG1, kappa, L234A L235A, N297A, name in Kabat numbering)
heavy: B1 heavy with D31N, N56A
chain: B1 chain
light: B1 light
notes: one-arm antibody
B7: CE115HA000 H chain altered form N31W (antibody, human IgG1, kappa, L234A L235A, N297A, name in Kabat numbering)
heavy: B1 heavy with D31W
chain: B1 chain
light: B1 light
notes: one-arm antibody
B8: CE115HA000 H chain altered form N53Q (antibody, human IgG1, kappa, L234A L235A, N297A, name in Kabat numbering)
heavy: B1 heavy with D31N, N56Q
chain: B1 chain
light: B1 light
notes: one-arm antibody
B9: CE115HA000 H chain altered form N31Q (antibody, human IgG1, kappa, L234A L235A, N297A, name in Kabat numbering)
heavy: B1 heavy with D31Q
chain: B1 chain
light: B1 light
notes: one-arm antibody
B10: CE115HA000 H chain altered form N54Y (antibody, human IgG1, kappa, L234A L235A, N297A, name in Kabat numbering)
heavy: B1 heavy with D31N, N57Y
chain: B1 chain
light: B1 light
notes: one-arm antibody
B11: CE115HA000 H chain altered form N31Y (antibody, human IgG1, kappa, L234A L235A, N297A, name in Kabat numbering)
heavy: B1 heavy with D31Y
chain: B1 chain
light: B1 light
notes: one-arm antibody
B12: CE115HA000 H chain altered form N53K (antibody, human IgG1, kappa, L234A L235A, N297A, name in Kabat numbering)
heavy: B1 heavy with D31N, N56K
chain: B1 chain
light: B1 light
notes: one-arm antibody
B13: CE115HA000 H chain altered form N31R (antibody, human IgG1, kappa, L234A L235A, N297A, name in Kabat numbering)
heavy: B1 heavy with D31R
chain: B1 chain
light: B1 light
notes: one-arm antibody
B14: CE115HA000 H chain altered form N54S (antibody, human IgG1, kappa, L234A L235A, N297A, name in Kabat numbering)
heavy: B1 heavy with D31N, N57S
chain: B1 chain
light: B1 light
notes: one-arm antibody
B15: CE115HA000 H chain altered form N53S (antibody, human IgG1, kappa, L234A L235A, N297A, name in Kabat numbering)
heavy: B1 heavy with D31N, N56S
chain: B1 chain
light: B1 light
notes: one-arm antibody
B16: CE115HA000 H chain altered form N53H (antibody, human IgG1, kappa, L234A L235A, N297A, name in Kabat numbering)
heavy: B1 heavy with D31N, N56H
chain: B1 chain
light: B1 light
notes: one-arm antibody
B17: CE115HA000 H chain altered form N54L (antibody, human IgG1, kappa, L234A L235A, N297A, name in Kabat numbering)
heavy: B1 heavy with D31N, N57L
chain: B1 chain
light: B1 light
notes: one-arm antibody
B18: CE115HA000 H chain altered form N54A (antibody, human IgG1, kappa, L234A L235A, N297A, name in Kabat numbering)
heavy: B1 heavy with D31N, N57A
chain: B1 chain
light: B1 light
notes: one-arm antibody
B19: CE115HA000 H chain altered form N31K (antibody, human IgG1, kappa, L234A L235A, N297A, name in Kabat numbering)
heavy: B1 heavy with D31K
chain: B1 chain
light: B1 light
notes: one-arm antibody
B20: CE115HA000 H chain altered form N54K (antibody, human IgG1, kappa, L234A L235A, N297A, name in Kabat numbering)
heavy: B1 heavy with D31N, N57K
chain: B1 chain
light: B1 light
notes: one-arm antibody
B21: CE115HA000 H chain altered form N31I (antibody, human IgG1, kappa, L234A L235A, N297A, name in Kabat numbering)
heavy: B1 heavy with D31I
chain: B1 chain
light: B1 light
notes: one-arm antibody
B22: CE115HA000 H chain altered form N54Q (antibody, human IgG1, kappa, L234A L235A, N297A, name in Kabat numbering)
heavy: B1 heavy with D31N, N57Q
chain: B1 chain
light: B1 light
notes: one-arm antibody
B23: CE115HA000 H chain altered form N54F (antibody, human IgG1, kappa, L234A L235A, N297A, name in Kabat numbering)
heavy: B1 heavy with D31N, N57F
chain: B1 chain
light: B1 light
notes: one-arm antibody
B24: CE115HA000 H chain altered form N31S (antibody, human IgG1, kappa, L234A L235A, N297A, name in Kabat numbering)
heavy: B1 heavy with D31S
chain: B1 chain
light: B1 light
notes: one-arm antibody
B25: CE115HA000 H chain altered form N53G (antibody, human IgG1, kappa, L234A L235A, N297A, name in Kabat numbering)
heavy: B1 heavy with D31N, N56G
chain: B1 chain
light: B1 light
notes: one-arm antibody
B26: CE115HA000 H chain altered form N54G (antibody, human IgG1, kappa, L234A L235A, N297A, name in Kabat numbering)
heavy: B1 heavy with D31N, N57G
chain: B1 chain
light: B1 light
notes: one-arm antibody
B27: CE115HA000 H chain altered form N31F (antibody, human IgG1, kappa, L234A L235A, N297A, name in Kabat numbering)
heavy: B1 heavy with D31F
chain: B1 chain
light: B1 light
notes: one-arm antibody
B28: CE115HA000 H chain altered form Q50D (antibody, human IgG1, kappa, L234A L235A, N297A, name in Kabat numbering)
heavy: B1 heavy with D31N, Q50D
chain: B1 chain
light: B1 light
notes: one-arm antibody
B29: CE115HA000 H chain altered form N53I (antibody, human IgG1, kappa, L234A L235A, N297A, name in Kabat numbering)
heavy: B1 heavy with D31N, N56I
chain: B1 chain
light: B1 light
notes: one-arm antibody
B30: CE115HA000 H chain altered form N31G (antibody, human IgG1, kappa, L234A L235A, N297A, name in Kabat numbering)
heavy: B1 heavy with D31G
chain: B1 chain
light: B1 light
notes: one-arm antibody
B31: CE115HA000 H chain altered form N53W (antibody, human IgG1, kappa, L234A L235A, N297A, name in Kabat numbering)
heavy: B1 heavy with D31N, N56W
chain: B1 chain
light: B1 light
notes: one-arm antibody
B32: CE115HA000 H chain altered form N54D (antibody, human IgG1, kappa, L234A L235A, N297A, name in Kabat numbering)
heavy: B1 heavy with D31N, N57D
chain: B1 chain
light: B1 light
notes: one-arm antibody
B33: CE115HA000 H chain altered form Q50A (antibody, human IgG1, kappa, L234A L235A, N297A, name in Kabat numbering)
heavy: B1 heavy with D31N, Q50A
chain: B1 chain
light: B1 light
notes: one-arm antibody

What follows are binders tested against T1, CD3 epsilon homodimer protein (UniProt P07766 23-126) (assay: SPR Biacore T200, CD3 epsilon homodimer on chip, antibody as analyte;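 further: homodimer amine-coupled to a CM4 sensor chip, run at 25 °C in HBS-EP+ buffer, with kinetic parameters derived in Biacore T200 Evaluation Software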).
T1 construct: also called CD3 (CD3 epsilon)
T1 sequence (P07766 23-126): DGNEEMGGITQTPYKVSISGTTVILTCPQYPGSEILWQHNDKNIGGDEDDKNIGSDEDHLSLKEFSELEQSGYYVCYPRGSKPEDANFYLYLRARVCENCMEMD
Procedure: An appropriate amount of CD3 epsilon homodimer protein was immobilized onto Sensor chip CM4 (GE Healthcare Japan Corp.) by the amine coupling method. Then, the antibody having an appropriate concentration was injected thereto as an analyte and allowed to interact with the CD3 epsilon homodimer protein on the sensor chip. Then, the sensor chip was regenerated by the injection of 10 mmol/L glycine-HCl (pH 1.5). The assay was conducted at 25 degrees C., and HBS-EP+(GE Healthcare Japan Corp.) was used as a running buffer. […] Each parameter was calculated using Biacore T200 Evaluation Software (GE Healthcare Japan Corp.).
Specifically, when the amount of the antibody comprising CE115HA000 bound was defined as X and the amount of the H chain one-amino acid altered form bound was defined as Y, a value of Z (ratio of amounts bound)=Y/X was used.
With B1 the “KD ratio (KD of CE115HA000 / KD of altered form)” value was 1.14.
For B2, the “KD ratio (KD of CE115HA000 / KD of altered form)” value was 0.96.
B3 was tested, and the “KD ratio (KD of CE115HA000 / KD of altered form)” value was 0.94.
B4 was tested, and the “KD ratio (KD of CE115HA000 / KD of altered form)” value was 16700.
With B5 the “KD ratio (KD of CE115HA000 / KD of altered form)” value was 0.55.
For B6, the “KD ratio (KD of CE115HA000 / KD of altered form)” value was 0.55.
B7 was tested, and the “KD ratio (KD of CE115HA000 / KD of altered form)” value was 1.07.
For B8, the “KD ratio (KD of CE115HA000 / KD of altered form)” value was 1.05.
For B9, the “KD ratio (KD of CE115HA000 / KD of altered form)” value was 0.94.
B10 was tested, and the “KD ratio (KD of CE115HA000 / KD of altered form)” value was 1.03.
With B11 the “KD ratio (KD of CE115HA000 / KD of altered form)” value was 1.1.
In the case of B12, the “KD ratio (KD of CE115HA000 / KD of altered form)” value is reported as 0.79.
For B13, the “KD ratio (KD of CE115HA000 / KD of altered form)” value was 0.98.
B14 was tested, and the “KD ratio (KD of CE115HA000 / KD of altered form)” value was 0.57.
B15 was tested, and the “KD ratio (KD of CE115HA000 / KD of altered form)” value was 0.59.
In the case of B16, the “KD ratio (KD of CE115HA000 / KD of altered form)” value is reported as 0.55.
With B17 the “KD ratio (KD of CE115HA000 / KD of altered form)” value was 0.91.
With B18 the “KD ratio (KD of CE115HA000 / KD of altered form)” value was 0.58.
In the case of B19, the “KD ratio (KD of CE115HA000 / KD of altered form)” value is reported as 0.97.
In the case of B20, the “KD ratio (KD of CE115HA000 / KD of altered form)” value is reported as 0.82.
B21 was tested, and the “KD ratio (KD of CE115HA000 / KD of altered form)” value was 0.62.
In the case of B22, the “KD ratio (KD of CE115HA000 / KD of altered form)” value is reported as 0.8.
With B23 the “KD ratio (KD of CE115HA000 / KD of altered form)” value was 0.97.
In the case of B24, the “KD ratio (KD of CE115HA000 / KD of altered form)” value is reported as 0.67.
B25 was tested, and the “KD ratio (KD of CE115HA000 / KD of altered form)” value was 0.95.
B26 was tested, and the “KD ratio (KD of CE115HA000 / KD of altered form)” value was 0.84.
For B27, the “KD ratio (KD of CE115HA000 / KD of altered form)” value was 1.24.
In the case of B28, the “KD ratio (KD of CE115HA000 / KD of altered form)” value is reported as 75.4.
For B29, the “KD ratio (KD of CE115HA000 / KD of altered form)” value was 0.57.
In the case of B30, the “KD ratio (KD of CE115HA000 / KD of altered form)” value is reported as 1.37.
With B31 the “KD ratio (KD of CE115HA000 / KD of altered form)” value was 0.69.
B32 was tested, and the “KD ratio (KD of CE115HA000 / KD of altered form)” value was 0.59.
With B33 the “KD ratio (KD of CE115HA000 / KD of altered form)” value was 22.6.
